T1: Int27 (Lactococcus lactis subsp. lactis CV56)
T1 chain: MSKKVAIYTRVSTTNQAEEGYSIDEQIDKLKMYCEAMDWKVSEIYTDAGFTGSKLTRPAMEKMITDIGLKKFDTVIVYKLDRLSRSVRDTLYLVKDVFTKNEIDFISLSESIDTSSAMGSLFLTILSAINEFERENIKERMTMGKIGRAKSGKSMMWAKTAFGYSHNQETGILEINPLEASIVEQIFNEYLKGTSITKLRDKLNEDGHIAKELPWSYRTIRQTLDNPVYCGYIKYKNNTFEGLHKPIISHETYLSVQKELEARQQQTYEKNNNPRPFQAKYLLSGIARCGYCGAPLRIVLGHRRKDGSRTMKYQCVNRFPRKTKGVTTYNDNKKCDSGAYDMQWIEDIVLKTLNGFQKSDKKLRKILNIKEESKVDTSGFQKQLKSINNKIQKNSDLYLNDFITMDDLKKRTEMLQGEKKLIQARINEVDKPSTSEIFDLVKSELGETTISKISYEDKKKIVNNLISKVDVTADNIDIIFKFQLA

T2: Int34 (Staphylococcus lugdunensis HKU09-01)
T2 chain: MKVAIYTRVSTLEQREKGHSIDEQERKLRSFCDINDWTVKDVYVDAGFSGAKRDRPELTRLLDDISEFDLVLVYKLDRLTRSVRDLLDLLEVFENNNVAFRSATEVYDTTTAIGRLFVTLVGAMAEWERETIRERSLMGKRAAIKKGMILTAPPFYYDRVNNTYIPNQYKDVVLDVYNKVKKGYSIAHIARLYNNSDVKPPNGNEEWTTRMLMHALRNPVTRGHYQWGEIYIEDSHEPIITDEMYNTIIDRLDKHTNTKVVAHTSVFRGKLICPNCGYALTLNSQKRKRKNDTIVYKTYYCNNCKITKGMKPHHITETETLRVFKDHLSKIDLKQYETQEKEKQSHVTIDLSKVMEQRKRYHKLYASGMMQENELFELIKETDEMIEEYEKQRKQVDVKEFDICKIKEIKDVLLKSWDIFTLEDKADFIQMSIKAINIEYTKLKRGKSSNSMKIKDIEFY

T3: Int7 (Geobacillus sp. Y412MC61)
T3 chain: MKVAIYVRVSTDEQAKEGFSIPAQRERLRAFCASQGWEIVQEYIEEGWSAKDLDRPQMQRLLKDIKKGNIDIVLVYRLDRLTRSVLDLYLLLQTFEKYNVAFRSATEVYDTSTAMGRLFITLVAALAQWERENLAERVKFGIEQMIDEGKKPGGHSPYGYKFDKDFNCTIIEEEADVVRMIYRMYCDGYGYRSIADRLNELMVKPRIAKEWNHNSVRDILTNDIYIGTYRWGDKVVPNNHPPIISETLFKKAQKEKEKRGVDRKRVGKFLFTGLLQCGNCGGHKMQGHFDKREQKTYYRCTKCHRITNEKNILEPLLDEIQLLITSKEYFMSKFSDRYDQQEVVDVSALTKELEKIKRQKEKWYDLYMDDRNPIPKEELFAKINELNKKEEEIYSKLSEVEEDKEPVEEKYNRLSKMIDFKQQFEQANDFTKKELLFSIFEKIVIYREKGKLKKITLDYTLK

B1: Int27 attB (dsDNA)
DNA 1: AATACTAATAATAGCTAGTACAATTAACATCTCTATCAAAGTAAAAGCTTTTAGCTCTTTCT
DNA 2: AGAAAGAGCTAAAAGCTTTTACTTTGATAGAGATGTTAATTGTACTAGCTATTATTAGTATT
B2: Int34 attP (dsDNA)
DNA 1: ATTTTTGTACGGAAGTAGATACTATCTTTCAATATCCATGTTACTTAGTGCCATACAAAAA
DNA 2: TTTTTGTATGGCACTAAGTAACATGGATATTGAAAGATAGTATCTACTTCCGTACAAAAAT
B3: Int7 attB (dsDNA)
DNA 1: AGACGAGAAACGTTCCGTCCGTCTGGGTCAGTTGGGCAAAGTTGATGACCGGGTCGTCCGTT
DNA 2: AACGGACGACCCGGTCATCAACTTTGCCCAACTGACCCAGACGGACGGAACGTTTCTCGTCT
B4: Int7 attP (dsDNA)
DNA 1: GTGTTATAAACCTGTGTGAGAGTTAAGTTTACATGCCTAACCTTAACTTTTACGCAGGTTCAGCTT
DNA 2: AAGCTGAACCTGCGTAAAAGTTAAGGTTAGGCATGTAAACTTAACTCTCACACAGGTTTATAACAC
B5: Int34 attB (dsDNA)
DNA 1: AATCTGCAAACATGTATGGCGGTACATGTATCAACATTGGTTGTATTCCTACAAAGACACTCAT
DNA 2: ATGAGTGTCTTTGTAGGAATACAACCAATGTTGATACATGTACCGCCATACATGTTTGCAGATT

Columns and labels:
Assay in all cases: cell_activity; attB x attP EGFP inversion reporter, HEK293FT
Int27 = target: T1, Int27; conditions: tags: C-terminal GS linker-SV40 NLS
Int34 = target: T2, Int34; conditions: tags: C-terminal GS linker-SV40 NLS; chain copies: 4
Int7 = target: T3, Int7; conditions: tags: C-terminal GS linker-SV40 NLS

Binder	binding signal (Int34)	binding signal (Int7)	also measured
B1			binding signal (Int27): 2.2 fraction of Bxb1
B2	0.408 fraction of Bxb1		
B3		0.096 fraction of Bxb1	
B4		0.096 fraction of Bxb1	
B5	0.408 fraction of Bxb1		

From patent US20240409906, “INTEGRASES, LANDING PAD ARCHITECTURES, AND ENGINEERED CELLS COMPRISING THE SAME” (Asimov Inc., published 2024)
